Where two headings read alike, the source gives them in different places. One block for each binder: values may come before it. No end group written: not given here.
Tests used:
[1] = target: T1, human recombinant adrenomedullin receptor (CRLR+RAMP3) (human); assay: cell-based or functional assay
[2] = target: T1, human recombinant adrenomedullin …; assay: cell-based or functional assay; remark: listed apart in the source

T1 sequence (Q16602 whole entry, chain 1 of 2): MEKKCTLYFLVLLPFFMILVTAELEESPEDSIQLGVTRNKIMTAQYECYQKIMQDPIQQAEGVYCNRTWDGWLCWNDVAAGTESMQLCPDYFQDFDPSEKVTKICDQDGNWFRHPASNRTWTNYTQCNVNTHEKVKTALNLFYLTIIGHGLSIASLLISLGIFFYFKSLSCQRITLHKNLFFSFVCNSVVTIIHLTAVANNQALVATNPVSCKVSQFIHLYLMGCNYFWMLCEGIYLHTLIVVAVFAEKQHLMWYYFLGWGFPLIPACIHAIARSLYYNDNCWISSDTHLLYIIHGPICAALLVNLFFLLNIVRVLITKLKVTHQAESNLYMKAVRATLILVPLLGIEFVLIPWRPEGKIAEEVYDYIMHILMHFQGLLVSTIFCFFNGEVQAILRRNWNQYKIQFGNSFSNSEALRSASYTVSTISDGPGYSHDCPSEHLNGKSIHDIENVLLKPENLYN
T1 sequence (O60896 whole entry, chain 2 of 2, further chain): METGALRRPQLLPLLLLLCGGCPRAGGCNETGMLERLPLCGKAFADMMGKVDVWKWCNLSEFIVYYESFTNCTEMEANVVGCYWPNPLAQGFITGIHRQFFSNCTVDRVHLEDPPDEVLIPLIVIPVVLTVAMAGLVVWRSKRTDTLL

EC50 (read off the curve); cAMP HTRF assay, CHO-K1 cells with human CRLR+RAMP3 [1]: ~1 nM
B1: mature human Adrenomedullin (Human ADM 1-52) (peptide)
peptide: YRQSMNNFQGLRSFGCRFGTCTVQKLAHQIYQFTDKDKDNVAPRSKISPQGY-NH2
modifications: ends and bridges not checked

EC50 (read off the curve); cAMP HTRF assay, CHO-K1 cells with human CRLR+RAMP3 [2]: ~0.08 nM
Binder: YRQSMNQGSRSNGCRFGTCTFQKLAHQIYQLTDKDKDGMAPRNKISPQGY-NH2 (ends and bridges not checked) [Mouse ADM 1-50]

Reference: patent US20210285949A1 (SPHINGOTEC, published 2021)
